Test results reported in paper PMC2515629 (PLoS ONE, 2008).

Target: T1, recombinant BoNT/A light chain (recombinant N-terminal domain of BoNT/A, amino acids 1-425) (Clostridium botulinum type A, …, UniProt P0DPI0)
T1 construct: source: E. coli, purified following published protocols
Test: kinetic exclusion assay (KinExA)
Details: both partners purified

T1 sequence (P0DPI0 1-425): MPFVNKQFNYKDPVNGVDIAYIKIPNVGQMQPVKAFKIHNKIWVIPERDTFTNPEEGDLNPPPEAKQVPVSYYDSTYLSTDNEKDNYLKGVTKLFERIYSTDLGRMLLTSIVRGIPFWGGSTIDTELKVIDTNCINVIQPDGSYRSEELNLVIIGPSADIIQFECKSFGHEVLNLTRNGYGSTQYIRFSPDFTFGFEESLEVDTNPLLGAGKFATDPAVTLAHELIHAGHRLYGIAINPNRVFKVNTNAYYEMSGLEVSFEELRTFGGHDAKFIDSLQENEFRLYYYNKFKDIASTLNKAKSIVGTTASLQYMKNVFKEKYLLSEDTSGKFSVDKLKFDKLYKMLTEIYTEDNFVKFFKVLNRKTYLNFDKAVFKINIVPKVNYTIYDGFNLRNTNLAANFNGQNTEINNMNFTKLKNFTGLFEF

B1: 4LCA antibody (antibody, V domains shown)
VH: QLQLQESGPGLVKPSETLSLTCTVSGGSISSSSYFWGWIRQPPGKGLEWIGYIHYSGNTYYNPSLTSRVTMSVDKSKNQFSLKLTSVTAADTALYSCATFLGRGAPFDPWGQGTLVTVSS
VL: QPPSVSVAPGQTARITCGGTNIGSKSVHWYQRQPGQAPVLVIYYDTDRPSGIPERFSGSNSENTATLTISRVEAGDEADYYCQVWGSGSDHPGVFGGGTKLTVL
notes: also called 4LCA mAb; 4LCA human monoclonal antibody
- Kd: 0.031 nM
- koff: 7.1e-05 s⁻¹
- kon: 2.3e+06 M⁻¹ s⁻¹
